Data as given in patent publication US20160053277A1, “Compositions Having Dicamba Decarboxylase Activity and Methods of Use” (PIONEER HI-BRED INTERNATIONAL, INC., priority 2013, published 2016).
Residue numbers refer to the chain shown, from its start.

B1: 5 (protein, listed as Staphylococcus aureus)
chain: MAQNNMEANQMKSITFEEHYVIEDIQKETMNAISADPKGVPMKVMLEGLEKKTGFTNADELSHHDERIQFMNNQDVQIQVLSYGNGSPSNLVGQKAIELCQKANDQLANYIAQYPNRFVGFATLPINEPEAAAREFERCINDLGFKGALIMGRAQDGFLDQDKYDIIFKTAENLGVPIYLHPAPVNSDIYQSYYKGNYPEVTAATFACFGYGWHIDVGIHAIHLVLSGIFDRYPKLNMIIGHWGEFIPFFLERMDEALFAEHLNHPVSYYFKNNFYITPSGMLTKPQFDLVKKEAGIDRILYAADYPYIEPEKLGVFLDELGLTDEEKEKISYTNGAKLLGLSSNN
B2: 16 (protein, listed as Staphylococcus aureus)
chain: B1 chain with A131T
B3: 29 (protein, listed as Pseudovibrio sp.)
chain: MAGRRDFLRKSVAAGVGLTAAAQLSAGGAQATVPDTSNIPLITLEEHFTTPELQSKNTSGDKRLFSGGGSRPELLDVGAGRIADMDEAGIDIQVLSTVTPGASKITGAEGVEFTRKFNTWIAEEVIAAYPNRFRAFATLPLSSPEAAADELERSVREYGFVGTMTYGPIDGKFLDHADYAPLLARAEALGVPIYIHPNWPSPTAMQAYYDGLGDDLTSRILSGPGYGWHQEIAVQCLRLIVGGVFDRFPNLQIVVGHMGEGLPFYYWRVGEDLDRIAQKRLQKPVQQYFHDNLWITTSAFFRDELLNLALATMGEDRVMFSVDYPMASAKVGADWLRAADIPLATKEKIGSKNAMKLLGIDKI
B4: 38 (protein, listed as Variovorax paradoxus)
chain: MAQGKIGLEEHFAIPQTLQDSAGFVPGVYWKELSSRLLDIHDGRLRQMDEHGMEMMILSLNAPAVQAVADPVKAYELAVRANDFLAEQVAKRPDRFQAFAALPMQDPEKATQELERCMSVLGFRGALVNGFSQVGTPDNVAYYDAPQYAPFWAAAERLDAPFYLHPRNPIASWAQIYEGHPWLLGPTWAFAQETAVHALRLMASGLFDRHPGLKIILGHLGEGLPYNMWRVDHRNAWVKAPKGYPAKRKLCEYFQENFYLTTSGNFRTQTLIDAMLEVGSDRILFSTDWPFENIDHASNWFNDTSISEADRKKIGRTNAMSLFKLA
B5: 21 (protein, listed as Agrobacterium tumefaciens)
chain: MAQGKVALEEHFAIPETLQDSAGFVPGDYWKELQHRLLDIQDTRLKLMDAHGIETMILSLNAPAVQAIPDRKKAIEIARRANDVLAEECARRPDRFLAFAALPLQDPDAATQELQRCVNDLGFVGALVNGFSQEGDGQTPLYYDLPQYRPFWGEVEKLDVPFYLHPRNPLPQDSRIYDGHPWLLGPTWAFAQETAVHALRLMASGLFDAHPRLNIILGHMGEGLPYMMWRIDHRNAWVKLPPRYPAKRRFVDYFNENFHITTSGNFRTQTLIDAILEIGADRILFSTDWPFENIDHASDWFNATTIAEADRVKIGRTNARRLFKLDGR
B6: 42 (protein)
chain: MAQGKIALEEHFAIPDTLQDSAGFVPGDYWKELSARLLDIHEQRLMQMDAYGIEKMILSLNAPAVQAIPDKAKALEISRRANDFLAEQCARNPDRFLGFAALPLQDPDAATAELQRCVKTLGFVGALVNGFSQEGDGVTPLYYDLPQYRGFWAEVEKLAVPFYLHPRNPLPQDSRIYAGHPWLMGPTWAFAQETAVHALRLVGSGLFDDHPALRIILGHMGEGLPYMMWRIDNRNAWVKVAPNYPAKRRIADYFNENFYITTSGNFRTQSLVDAMLEIGADRILFSTDWPFENIDHASDWFDTATISEADRLKIGRTNAATLFNLES
modifications: Agrobacterium radiobacter
B7: 26 (protein, listed as Variovorax paradoxus)
chain: MATHMAPMKNKIALEEHFAIDLTIADSQVYARPEVWQGLKSNLLDFEQQRLEKMDEWGTEFSILSLNSPAVQGIPDAKRAIEVAQRANDVLAEQVKRHPTRFGGFAALPMQDPEASARELERCVNQLGFHGFLVNGFSQVGDENIVVYYDDARFNDFWTAAAALKKPFYMHPRDPLLAREPIYDGAHWLTGPTWAFAMETAIHALRLMSSGMFDRHPALQMILGHFGEGIPFNIWRVDHILRKGRRGMPCDKEIGEYLRSNVHITTSGNFRTPTLLSTMLEVGSDRIMYSVDYPFEKHEDAARWFDTCEISENDRQKIGRDNARKLFGLK
B8: 108 (protein, listed as Staphylococcus aureus)
chain: MAKSITFEEHYVIEDIQKETMNAISADPKGVPMKVMLEGLEKKTGFTNADELSHHDERIQFMNNQDVQIQVLSYGNGSPSNLVGQKAIELCQKANDQLANYIAQYPNRFVGFATLPINEPEAAAREFERCINDLGFKGALIMGRAQDGFLDQDKYDIIFKTAENLDVPIYLHPAPVNSDIYQSYYKGNYPEVTAATFACFGYGWHIDVGIHAIHLVLSGIFDRYPKLNMIIGHWGEFIPFFLERMDEALFAEHLNHSVSYYFKNSFYITPSGMLTKPQFDLVKKEVGIDRILYAADYPYIEPEKLGVFLDELGLTDEEKEKISYTNGAKLLGLSSNN
B9: 37 (protein, listed as Burkholderia gladioli)
chain: MATFSNVKKIALEEHFAIAETIEDSAGFVPPDDWVELRGRLLDIQERRLAEMDRAGIELMVLSLNAPAVQAIRDPRQAVELARRANDYLAEQVARRPDRFRAFAALPMQAPEQAIREAERCVRELGFVGALVNGFSEAEDGAELYYDLPRYRPFWAALEALEVPFYLHPRNPLAGRAPIYDGHSWLMGPTWAFGQETAVHALRLMGSGLFDAHPRLQIILGHMGEGLPYSMWRVDNRNAWVSAKPNYPAEKPIAEYFRNNFWLTTSGNFRTQTLIDAMLEIGSDRILFSADWPFENMDHAADWFDHASISENDRIKIGRGNAERLLKLGR
B10: 22 (protein, listed as Staphylococcus epidermidis)
chain: MAKSINFEEHYVVDDIQKETMKYMSSDPNGVPMQTMLKGLEQKSGFTNADDITKHDERIKFMDEHDVEMQVLSYGNGAPSNLEGERAIELCQQANDTLAKYVNEHPDRFVGFATLPINEPQAAVEEFKRCIKELGFKGALIMGHPKNGFLDQDQYDDLFATAEALNVPIYLHPSPVQSDVYQAYYKGNYSDVTAATFACFGYGWHVDVGIHAIHLVLSGVFDRHPNLNMIIGHWGEFVPFFLERMDDILFADHLEHPISYYFKNNFYITPSGMLTKPQFDLVKAEVGVDRILYSADYPYVEPDKLGTFLDELDLTEEEKEKISYKNGAKLLGLEK
B11: 40 (protein, listed as Rhodococcus jostii)
chain: MAQGKIALEEHFAIPETLNDSAGFVPGTYWDELQARLLDIQDVRLKLMDEHNIETMILSLNAPAVQAIPERERAIDIARRANDVLAEECAKRPDRFRGFAALPLQDPDAAAEELRRCVTELGFVGALVNGFSQSATVDGGSTPLYYDLPRYRPFWAEVERLDVPFYLHPRNPLNQDARIYEGHPWLLGPTWAFAQETAVHALRLMASGLFDEHPGLRIVLGHMGEGIPAMLWRIDHRNAWVDVPPAYPAKRRMVDYFTENFFVTTSGNFRTQTLIDLLLELGSERVMFSTDWPFENINHAAEWFDAASISEADRLKIGRTNAATLFKLDR
B12: 39 (protein, listed as Agrobacterium fabrum)
chain: MAQGKVALEEHFAIPETLQDSAGFVPGDCWTELQHRLLDIQDTRLKLMDAHGIETMILSLNAPAVQAIPDKTKAIEIARRANDALAEECAKRPDRFLAFAALPLQDPDAATQELRRCVNDLGFVGALVNGFSQEGDGQTPLYYDLPQYRPFWGEVEKLDVPFYLHPRNPLPQDSRIYDGHPWLLGPTWAFAQETAVHALRLMASGLFDEHPRLDIILGHMGEGLPYMMWRIDHRNAWVKLPPRYPAKRRFVDYFNENFHITTSGNFRTQTLIDAILEIGADRILFSTDWPFENIDHASDWFHATSIAEADRVKIGRTNARRLFKLDGR
B13: 19 (protein, listed as Talaromyces marneffei)
chain: MATPIITLEEHYISSAIRDASETDHYAVFPSQIISKLNTLSTERLQDLDNGHVSLQVISHGPGAQPPYLCQAANDELASAISANPTRFAGFALLPIAEPQLAVQELERCITQHKFVGALIDNHTNGQFYDDQKFWPVFEKAQELDAPIYVHPSYPDEESGVAAHYRGNYDDRIAAALGAYGWGWHSDTALSILRLFAAGLFDTYPNIKIIIGHMGEMLPFQLERVIGIASRFGRSRGLREVWTQNIWVTTSGMFALAPLACLLQTMPIERVLYSVDYPFSANEKGFAFLEEIKKSGLIKEGEDWERFLYKNAQELLKVNV

Key:
[1] = 14C assay with IPTG-induced recombinant E. coli cells: 14CO2 captured from [14C]-carboxyl-labeled dicamba; settings: for decarboxylation activity of dicamba: among the 108 sequences tested, recombinant E. coli cells; for Enzymatic Detection level: dicamba decarboxylation activity of the protein of the given SEQ ID NO, High / Low / No; for Dicamba Decarboxylase Activity: induced recombinant E. coli cells, [14C]-carboxyl-labeled dicamba, 14CO2 capture
[2] = Saturation mutagenesis of SEQ ID NO:109: dicamba decarboxylation activity of point mutants (carbon dioxide released); settings: decarboxylation activity (carbon dioxide released) of point mutant compared with unmutated backbone protein; backbone SEQ ID NO: 109

Row | Molecule | decarboxylation activity of dicamba [1] | Enzymatic Detection level [1] | Dicamba Decarboxylase Activity [1] | Fold Activity [2]
1 | B1 | showed decarboxylation activity of dicamba | High | High | 0.8
2 | B2 | showed decarboxylation activity of dicamba | High | High | 1.1
3 | B3 |  | No | No | 1.5
4 | B4 |  | Low | Low | 1.8
5 | B5 | showed decarboxylation activity of dicamba | High | High | 1.9
6 | B6 |  | Low | Low | 1.7
7 | B7 | showed decarboxylation activity of dicamba | High | High | 1.2
8 | B8 | showed decarboxylation activity of dicamba | High | High | 1.6
9 | B9 |  | Low | Low | 1.6
10 | B10 | showed decarboxylation activity of dicamba | High | High | 1.6
11 | B11 |  | Low | Low | 1.4
12 | B12 |  | No | No | 1.6
13 | B13 | showed decarboxylation activity of dicamba | High | High | 1.6
